From patent US20250002610A1 (Genmab, published 2025)
Residue numbers refer to the chain shown, from its start.

T1: human DR4 (Death Receptor 4), cell surface expressed on human tumor cell lines (human, UniProt O00220 24-468)
T1 construct: also called TNFRSF10A; TRAIL-R1
T1 sequence: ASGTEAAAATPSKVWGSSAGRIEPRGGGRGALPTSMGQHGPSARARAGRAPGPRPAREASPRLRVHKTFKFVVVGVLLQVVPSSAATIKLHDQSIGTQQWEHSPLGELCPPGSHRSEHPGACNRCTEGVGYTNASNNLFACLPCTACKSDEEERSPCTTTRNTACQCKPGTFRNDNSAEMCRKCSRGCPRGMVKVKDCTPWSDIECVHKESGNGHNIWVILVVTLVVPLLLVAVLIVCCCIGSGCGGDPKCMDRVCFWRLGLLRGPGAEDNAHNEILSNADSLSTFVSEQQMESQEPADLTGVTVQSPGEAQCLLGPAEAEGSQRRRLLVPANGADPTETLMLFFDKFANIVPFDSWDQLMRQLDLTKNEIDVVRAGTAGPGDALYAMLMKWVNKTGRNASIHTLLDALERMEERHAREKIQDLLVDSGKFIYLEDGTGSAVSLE

T2: cynomolgus monkey FAPα on Expi293F cells (cynomolgus monkey (Macaca fascicularis), UniProt Q12884 1-760 (human entry))
T2 sequence: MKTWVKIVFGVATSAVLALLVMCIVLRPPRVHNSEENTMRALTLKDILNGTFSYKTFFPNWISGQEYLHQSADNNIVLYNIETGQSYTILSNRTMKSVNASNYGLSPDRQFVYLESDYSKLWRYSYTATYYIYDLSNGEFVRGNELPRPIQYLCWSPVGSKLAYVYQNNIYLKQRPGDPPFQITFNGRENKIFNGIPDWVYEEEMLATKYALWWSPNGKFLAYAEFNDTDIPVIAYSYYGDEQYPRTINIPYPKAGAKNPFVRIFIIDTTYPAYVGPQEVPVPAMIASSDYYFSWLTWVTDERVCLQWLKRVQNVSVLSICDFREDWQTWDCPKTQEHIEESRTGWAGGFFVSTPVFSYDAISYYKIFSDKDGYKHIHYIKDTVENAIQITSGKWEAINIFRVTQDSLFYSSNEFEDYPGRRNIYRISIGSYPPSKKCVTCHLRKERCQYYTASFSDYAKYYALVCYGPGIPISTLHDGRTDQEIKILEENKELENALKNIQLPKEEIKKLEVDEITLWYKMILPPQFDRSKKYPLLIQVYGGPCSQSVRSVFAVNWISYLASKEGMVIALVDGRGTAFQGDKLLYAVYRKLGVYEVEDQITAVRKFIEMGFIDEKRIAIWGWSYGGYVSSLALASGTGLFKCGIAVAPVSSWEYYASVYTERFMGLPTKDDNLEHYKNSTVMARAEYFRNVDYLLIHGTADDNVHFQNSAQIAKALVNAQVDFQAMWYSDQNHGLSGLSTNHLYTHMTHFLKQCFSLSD

T3: human FAPα (Fibroblast activation protein alpha), cell surface expressed (human, UniProt Q12884 1-760)
T3 construct: Endogenous on human lung fibroblasts and CAFs
T3 sequence: T2 sequence with P29S, F261V, D417E

B1: BisG1-FAPα-FERL/DR4-FERR (bispecific antibody, human IgG1, kappa, lambda)
heavy 1: EVQLLESGGGLVQPGGSPRLSCEASGFTFSSYALSWVRQAPGKGLEWVSAISGSGGGRYYADSVKGRFTISRDNSKNTLFLQMNSLRAEDTAVYYCAKEGYSSSGTYWDHWGQGTLVTVSSASTKGPSVFPLAPSSKSTSGGTAALGCLVKDYFPEPVTVSWNSGALTSGVHTFPAVLQSSGLYSLSSVVTVPSSSLGTQTYICNVNHKPSNTKVDKRVEPKSCDKTHTCPPCPAPEFERGPSVFLFPPKPKDTLMISRTPEVTCVVVDVSHEDPEVKFNWYVDGVEVHNAKTKPREEQYNSTYRVVSVLTVLHQDWLNGKEYKCKVSNKALPAPIEKTISKAKGQPREPQVYTLPPSREEMTKNQVSLTCLVKGFYPSDIAVEWESNGQPENNYKTTPPVLDSDGSFLLYSKLTVDKSRWQQGNVFSCSVMHEALHNHYTQKSLSLSPG
light 1: AIQMTQSPSSVSASVGDRVTITCRASQGVSSWLAWYQQKPGRAPKLLIYVASTLQSGVPSRFSGSGSGTDFTLTINSLQPEDFATYYCQQANSFPPTFGQGTRLEMKRTVAAPSVFIFPPSDEQLKSGTASVVCLLNNFYPREAKVQWKVDNALQSGNSQESVTEQDSKDSTYSLSSTLTLSKADYEKHKVYACEVTHQGLSSPVTKSFNRGEC
heavy 2: QVQLQESGPGLVKPSGTLSLTCAVSGGSISSYSWWSWIRQPPGKGLEWIGELYHSGSTNYNPSLKSRVTISVDKSKNQFSLKLRSVTAADTAVYYCVRGVATIDYWGQGTLVTVSSASTKGPSVFPLAPSSKSTSGGTAALGCLVKDYFPEPVTVSWNSGALTSGVHTFPAVLQSSGLYSLSSVVTVPSSSLGTQTYICNVNHKPSNTKVDKRVEPKSCDKTHTCPPCPAPEFERGPSVFLFPPKPKDTLMISRTPEVTCVVVDVSHEDPEVKFNWYVDGVEVHNAKTKPREEQYNSTYRVVSVLTVLHQDWLNGKEYKCKVSNKALPAPIEKTISKAKGQPREPQVYTLPPSREEMTKNQVSLTCLVKGFYPSDIAVEWESNGQPENNYKTTPPVLDSDGSFFLYSRLTVDKSRWQQGNVFSCSVMHEALHNHYTQKSLSLSPG
light 2: QSALTQPPSASGSPGQSVTISCTGTSSDVGGYNFVSWYQQDPGKAPKLLIYEVTKRPSGVPDRFSGSKSGNTASLTVSGLQAEDEADYYCSSYAGSNNVMFGGGTKLTVLGQPKAAPSVTLFPPSSEELQANKATLVCLISDFYPGAVTVAWKADSSPVKAGVETTTPSKQSNNKYAASSYLSLTPEQWKSHRSYSCQVTHEGSTVEKTVAPTECS
notes: Human IgG1 bispecific made by controlled Fab-arm exchange of IgG1-FAPα-FERL and IgG1-DR4-FERR; monovalent for FAPα and for DR4; also called GEN1057
B2: IgG1-FAPα-FERL (antibody)
heavy: B1 heavy 1
light: B1 light 1
notes: Bivalent monoclonal IgG1 kappa

Key:
[1] = target: T1, human DR4 (Death Receptor 4), cell …; experiment: flow cytometry, MDA-MB-231 cells, N = 1
[2] = target: T2, cynomolgus monkey FAPα on Expi293F cells; experiment: flow cytometry, Expi293F cells expressing cynomolgus monkey FAPα, n = 1
Procedure: (§1) Binding of BisG1-FAPα-FERL/DR4-FERR, BisG1-FAPα-FEAL/b12-FEAR and IgG1-FAPα-FERL to FAPα of species commonly used for nonclinical toxicology studies was assessed by flow cytometry using Expi293F cells transiently expressing FAPα from different animal species. IgG1-b12 was included as negative control.
(§2) Expi293F cells expressing recombinant FAPα from various species (human, cynomolgus monkey, dog, pig, rat or mouse) were seeded (20,000 cells/well) in 96-Well round bottom plates (Greiner Bio-one, Cat #650101). Antibody dilutions were prepared using FACS buffer, consisting of PBS (Capricorn Scientific, Cat #PBS-10XA, diluted to 1×PBS in distilled water)+1% BSA (Roche, Cat #10735086001)+0.02% Sodium Azide (Bio-World, Cat #41920044-3). Plates were centrifuged, supernatant was removed, and cells were resuspended in 100 μL of antibody dilutions (concentration range 30-0.00017 μg/mL with three-fold serial dilutions using FACS buffer) of BisG1-FAPα-FERL/DR4-FERR, BisG1-FAPα-FEAL/b12-FEAR, IgG1-FAPα-FERL and IgG1-b12 and incubated for 30 min at 4° C. […] After 30 min incubation at 4° C., cells were washed with FACS buffer and resuspended in FACS buffer supplemented with TO-PRO-3 Iodide viability marker (Invitrogen, Cat #T3605, diluted 1:4,000). Antibody binding to viable cells (gMFI of PE on TO-PRO-3 negative cells) was analyzed by flow cytometry on a FACS Celesta and FACS_Diva software (first two experiments) or iQue® 3 and FlowJo software (last experiment). gMFI was determined and visualized using GraphPad Prism. Binding curves were analyzed using nonlinear regression analysis. The concentration (pg/mL) at which 50% of the maximal effect was observed (EC₅₀) was derived from the fitted curves.

[3] = target: T3, human FAPα (Fibroblast activation …); experiment: flow cytometry, Expi293F cells expressing human FAPα, average ± SEM
Procedure: as §1, §2

[4] = target: T3, human FAPα (Fibroblast activation …); experiment: flow cytometry, Expi293F cells expressing human FAPα, n = 3
Procedure: as §1, §2

Row | Binder | EC50 [1] [µg/mL] | EC50 [2] [µg/mL] | EC50 [3] [µg/mL] | EC50 [4] [µg/mL]
1 | B1 | 0.71 | 0.24 | 0.24 | 0.23
2 | B2 |  | 0.03 | 0.18 | 0.32
